{
  "source": "patent US20140087995A1",
  "about": "(published 2014)",
  "binders": {"B1": {"name": "N^α1 N^α1-[(4S)-4-carboxy-4-[[(4S)-4-carboxy-4-(19-carboxynonadecanoylamino)butanoyl]amino]butanoyl]-[Glu14,Arg17,Pro21,Pro27]-h-amylin (peptide)", "peptide": "{C20 diacid-γGlu-γGlu}-KCNTATCATQRLAEFLRHSSPNFGAIPSSTNVGSNTY-NH2", "modifications": "disulfide 2-7", "SMILES": "CC[C@H](C)[C@H](NC(=O)[C@H](C)NC(=O)CNC(=O)[C@H](Cc1ccccc1)NC(=O)[C@H](CC(N)=O)NC(=O)[C@@H]1CCCN1C(=O)[C@H](CO)NC(=O)[C@H](CO)NC(=O)[C@H](Cc1c[nH]cn1)NC(=O)[C@H](CCCNC(=N)N)NC(=O)[C@H](CC(C)C)NC(=O)[C@H](Cc1ccccc1)NC(=O)[C@H](CCC(=O)O)NC(=O)[C@H](C)NC(=O)[C@H](CC(C)C)NC(=O)[C@H](CCCNC(=N)N)NC(=O)[C@H](CCC(N)=O)NC(=O)[C@@H](NC(=O)[C@H](C)NC(=O)[C@@H]1CSSC[C@H](NC(=O)[C@H](CCCCN)NC(=O)CC[C@H](NC(=O)CC[C@H](NC(=O)CCCCCCCCCCCCCCCCCCC(=O)O)C(=O)O)C(=O)O)C(=O)N[C@@H](CC(N)=O)C(=O)N[C@@H]([C@@H](C)O)C(=O)N[C@@H](C)C(=O)N[C@@H]([C@@H](C)O)C(=O)N1)[C@@H](C)O)C(=O)N1CCC[C@H]1C(=O)N[C@@H](CO)C(=O)N[C@@H](CO)C(=O)N[C@H](C(=O)N[C@@H](CC(N)=O)C(=O)N[C@H](C(=O)NCC(=O)N[C@@H](CO)C(=O)N[C@@H](CC(N)=O)C(=O)N[C@H](C(=O)N[C@@H](Cc1ccc(O)cc1)C(N)=O)[C@@H](C)O)C(C)C)[C@@H](C)O", "notes": "also called 14E, 17R, 21P, 27P"}, "B2": {"name": "N^α1-[2-[2-[2-[[2-[2-[2-[[(4S)-4-carboxy-4-(19-carboxynonadecanoylamino)butanoyl]amino]ethoxy]ethoxy]acetyl]amino]ethoxy]ethoxy]acetyl]-[Glu14,Arg17,Pro21,Pro27 … (peptide)", "peptide": "KCNTATCATQRLAEFLRHSSPNFGAIPSSTNVGSNTY", "modifications": "C20 diacid-gGlu-2xOEG on the alpha amino group of the N-terminal residue; disulfide Cys2-Cys7 and C-terminal amide as in human amylin", "notes": "as for B1"}, "B3": {"name": "N^α1-[2-[2-[2-[[2-[2-[2-[[(4S)-4-carboxy-4-(19-carboxynonadecanoylamino)butanoyl]amino]ethoxy]ethoxy]acetyl]amino]ethoxy]ethoxy]acetyl]-[Glu14,Arg17,Pro21,Pro27 … (peptide)", "peptide": "{C20 diacid-γGlu-AEEA-AEEA}-KCNTATCATQRLAEFLRHSSPNFGAIPSSTNVGSNTP-NH2", "modifications": "disulfide 2-7", "SMILES": "CC[C@H](C)[C@H](NC(=O)[C@H](C)NC(=O)CNC(=O)[C@H](Cc1ccccc1)NC(=O)[C@H](CC(N)=O)NC(=O)[C@@H]1CCCN1C(=O)[C@H](CO)NC(=O)[C@H](CO)NC(=O)[C@H](Cc1c[nH]cn1)NC(=O)[C@H](CCCNC(=N)N)NC(=O)[C@H](CC(C)C)NC(=O)[C@H](Cc1ccccc1)NC(=O)[C@H](CCC(=O)O)NC(=O)[C@H](C)NC(=O)[C@H](CC(C)C)NC(=O)[C@H](CCCNC(=N)N)NC(=O)[C@H](CCC(N)=O)NC(=O)[C@@H](NC(=O)[C@H](C)NC(=O)[C@@H]1CSSC[C@H](NC(=O)[C@H](CCCCN)NC(=O)COCCOCCNC(=O)COCCOCCNC(=O)CC[C@H](NC(=O)CCCCCCCCCCCCCCCCCCC(=O)O)C(=O)O)C(=O)N[C@@H](CC(N)=O)C(=O)N[C@@H]([C@@H](C)O)C(=O)N[C@@H](C)C(=O)N[C@@H]([C@@H](C)O)C(=O)N1)[C@@H](C)O)C(=O)N1CCC[C@H]1C(=O)N[C@@H](CO)C(=O)N[C@@H](CO)C(=O)N[C@H](C(=O)N[C@@H](CC(N)=O)C(=O)N[C@H](C(=O)NCC(=O)N[C@@H](CO)C(=O)N[C@@H](CC(N)=O)C(=O)N[C@H](C(=O)N1CCC[C@H]1C(N)=O)[C@@H](C)O)C(C)C)[C@@H](C)O", "notes": "also called 14E, 17R, 21P, 27P, 37P"}, "B4": {"name": "N^α1-[(4S)-4-carboxy-4-(19-carboxynonadecanoylamino)butanoyl]-[Arg17,Pro21,Pro27,Arg34]-h-amylin (peptide)", "peptide": "B2 peptide with E14N, S34R", "modifications": "C20 diacid-gGlu on the alpha amino group of the N-terminal residue; disulfide Cys2-Cys7 and C-terminal amide as in human amylin", "notes": "also called 17R, 21P, 27P, 34R"}, "B5": {"name": "N^α1-[(4S)-4-carboxy-4-(19-carboxynonadecanoylamino)butanoyl]-[Arg17,Pro21,Pro27,His34]-h-amylin (peptide)", "peptide": "B2 peptide with E14N, S34H", "modifications": "C20 diacid-gGlu on the alpha amino group of the N-terminal residue; disulfide Cys2-Cys7 and C-terminal amide as in human amylin", "notes": "also called 17R, 21P, 27P, 34H"}},
  "note": "Positions count from the first letter of the chain named. Numbered stars: 1 amine (or outer) side, 2 acyl side, 3 side chain; on linkers, the order of the positions; unused ones are H or OH. Bridge positions count the residues as written; N and C are the ends. * marks the point of attachment. C20 diacid = O=C(O)CCCCCCCCCCCCCCCCCCC(=O)*; γGlu = O=C(O)[C@H](CCC(=O)[*:2])N[*:1]; AEEA = NCCOCCOCC(=O)O",
  "data": [
    {"target": "T1, human amylin receptor (human, UniProt P30988 25-474; O60896 24-148, limits assumed)", "T1 construct": "whole, on cells; Calcitonin receptor plus RAMP-3 gives the amylin 3(a) receptor; membranes of Amylin 3(a)/CRE-luc cells were used; also called hAmylin-R; hAmylinR", "T1 sequence (looked up) 1": "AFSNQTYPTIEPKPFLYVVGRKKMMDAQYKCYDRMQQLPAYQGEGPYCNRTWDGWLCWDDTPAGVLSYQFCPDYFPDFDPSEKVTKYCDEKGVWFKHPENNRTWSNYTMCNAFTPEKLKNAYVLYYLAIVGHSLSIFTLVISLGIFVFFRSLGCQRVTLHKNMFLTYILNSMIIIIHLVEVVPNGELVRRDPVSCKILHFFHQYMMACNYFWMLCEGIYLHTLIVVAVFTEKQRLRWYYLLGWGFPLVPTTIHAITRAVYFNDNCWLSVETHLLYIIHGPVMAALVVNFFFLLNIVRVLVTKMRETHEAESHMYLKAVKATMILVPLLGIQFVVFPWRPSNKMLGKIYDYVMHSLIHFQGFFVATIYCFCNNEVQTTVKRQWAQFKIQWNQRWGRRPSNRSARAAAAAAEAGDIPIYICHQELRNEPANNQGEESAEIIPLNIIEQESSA", "T1 sequence (looked up) 2": "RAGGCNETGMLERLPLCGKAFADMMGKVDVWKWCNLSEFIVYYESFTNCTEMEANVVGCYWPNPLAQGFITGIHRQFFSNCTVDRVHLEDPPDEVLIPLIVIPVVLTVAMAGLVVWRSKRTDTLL", "assay": "SPA competition binding, displacement of 125I-rat amylin from membranes with human amylin 3(a) receptor (Assay V)", "protocol": "The binding assay was performed using scintillation proximity assay (SPA) beads (RPNQ0001) from PerkinElmer and cell membranes from the Amylin 3(a)/CRE-luc cells (as described in Assay (II)) were used. Membranes were prepared in the following way; the cells were rinsed with PBS and incubated with Versene for approximately 5 min before harvesting. The cells were flushed with PBS and the cell-suspension was centrifuged for 5 min at 1000 rpm. Cells were homogenized (ultrathurrax) in a buffer containing 20 mM Na-HEPES and 10 mM EDTA (pH 7.4) and centrifuged at 20.000 rpm for 15 min. The resulting pellet was resuspended, homogenized and centrifuged (20.000 rpm, 15 min) in a buffer containing 20 mM Na-HEPES and 0.1 mM EDTA (pH 7.4, buffer 2). The resulting pellet was resuspended in buffer 2 and protein concentration was measured (BCA protein Assay, Pierce). The homogenate was kept cold during the whole procedure. The membranes were kept at −80° C. until use. The assay was performed in a 384 well Optiplate (PerkinElmer) in a total volume of 40 ul. Membranes were mixed with SPA beads. Final concentration of membranes 35 ng/μL final and SPA beads was 0.05 mg/well. Test-compounds were dissolved in DMSO and further diluted in assay buffer (50 mM Hepes, pH 7.4, 1 mM CaCl2, 5 mM MgCl₂, 0.1% OA and 0.02% Tween20). […] The final mixture was incubated with shaking at 400 rpm for 120 min at 25° C. prior to centrifugation (1500 rpm, 10 min). Samples were analyzed on TopCounter™ (Packard). The IC₅₀ was calculated using (one site binding competition analysis) GraphPad Prism5 as a measure of receptor affinity.", "units": {"IC50": "nM"}, "values": [
      {"binder": "B1", "IC50": 0.597},
      {"binder": "B2", "IC50": 0.556},
      {"binder": "B3", "IC50": 0.217},
      {"binder": "B4", "IC50": 0.665},
      {"binder": "B5", "IC50": 0.549}
    ]}
  ]
}
